In US20110294738A1, “PTHR1 RECEPTOR COMPOUNDS” (priority 2008, published 2011):

Columns and labels:
PTHR1 [1] = target: T1, PTHR1 (Rattus norvegicus, UniProt P25961); assay: cAMP screening assay using DiscoveRX XS+ kit (PTH1-34 dose-response in UMR-106 cells); conditions: compound 10 μM, PTH1-34 stimulated maximal response, 1−(Emax compound/Emax vehicle)
T1 sequence (P25961 27-591): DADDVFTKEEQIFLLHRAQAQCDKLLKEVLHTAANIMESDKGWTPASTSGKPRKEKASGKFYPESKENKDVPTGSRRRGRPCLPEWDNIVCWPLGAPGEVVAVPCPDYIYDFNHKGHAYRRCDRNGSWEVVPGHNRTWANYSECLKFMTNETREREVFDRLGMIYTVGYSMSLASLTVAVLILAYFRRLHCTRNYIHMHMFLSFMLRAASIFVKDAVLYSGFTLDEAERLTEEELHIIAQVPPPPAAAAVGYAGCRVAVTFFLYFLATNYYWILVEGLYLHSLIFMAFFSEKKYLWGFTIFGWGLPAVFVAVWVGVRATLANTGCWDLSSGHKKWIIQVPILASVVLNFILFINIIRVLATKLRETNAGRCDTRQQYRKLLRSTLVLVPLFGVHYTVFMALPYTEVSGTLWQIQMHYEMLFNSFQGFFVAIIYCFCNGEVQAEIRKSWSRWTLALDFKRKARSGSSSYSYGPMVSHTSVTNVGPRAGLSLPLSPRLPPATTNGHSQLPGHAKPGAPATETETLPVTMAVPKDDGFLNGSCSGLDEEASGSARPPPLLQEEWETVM
Description: (§1) cAMP Screening Assay Using DiscoveRX XS+ Kit
(§2) UMR-106 cells were seeded in 96-well white plates at 10K cells/well in growth media. Twenty four hours after seeding, cell media was removed by gentle dumping and replaced with 30 μL of compounds diluted to 10 μM final concentration in assay buffer (Hank's balanced Salt Solution, 20 mM HEPES, pH 7.4, 0.1 μM IBMX). After 30 minute incubation at room temperature, 10 μL human PTH1-34 serial diluted in assay buffer was added. Cells were incubated at 37° C. for 15 minutes before 10 μL of water soluble analog of forskolin, NKH477 was added to final concentration of 10 μM followed by 60 minute incubation at room temperature. DiscoveRX cAMP XS+ kit reagents were then added following manufacture protocol. Briefly, 10 μL of antibody was added to each well followed by 40 μL of ED/Lysis buffer mix (1/5/19 for Galacon-star/Emerald/Lysis buffer and then 1:1 with ED). After 1 hour incubation, 40 μL of EA reagent was added followed by at least 1 hour incubation before the plates were read on TopCount reader. Data was analyzed using GraphPad Prism. PTH1-34 dose-response curves were fitted using non-linear curve fit (Y=Bottom+(Top−Bottom)/(1+10̂((Log EC50−X)*HillSlope))). PTH1-34 EC50 values calculated in the presence of compounds were compared to that in the presence of vehicle control. The ratio of the EC50 values were calculated and presented as fold shift (EC50 compound/EC50 vehicle). The effect of compounds on PTH1-34 stimulated maximal response was also assessed and was presented percent inhibition (1−(Emax compound/Emax vehicle)).

PTHR1 [2] = target: T1, PTHR1
Description: as §1, §2

| Inhibition of Maximal Response (PTHR1 [1]) | Sequence | Fold Shift of EC50 (PTHR1 [2]) |
| --- | --- | --- |
| −25.20% | TNAGRSDTRQQYRKLLK [Compound 84] | 9.1 |
| 0.50% | NGEVQAEIKKSWSRWTLA [Compound 98] | 1 |

The remaining lines, values behind:

| Sequence | Inhibition of Maximal Response (PTHR1 [1]) | Fold Shift of EC50 (PTHR1 [2]) |
| --- | --- | --- |
| TNAGRSDTRQQYRK [Compound 69] | 2.50% | 5.2 |
| LAYFRRLHSTRNYI [Compound 9] | 12.70% | 1.1 |
| RQQYRKLLKSTL [Compound 57] | −38.80% | 15.6 |
